# According to paper PMC6842167 (Retrovirology, 2019):
# Target: T1, Recombinant human two-domain CD4 (Homo sapiens)
# T1 construct: also called 2dCD4; N-terminal two domain fragment of human CD4
# Test: ELISA; decreasing concentrations of 2dCD4 immobilised directly on a 96 well plate; antibodies at 1 µg/ml; anti-human HRP secondary, absorbance at 450 nm
# Conditions: both partners purified
binder,measurement,value
"ibalizumab (antibody, V domains shown, also called iMab; parental iMab antibody; source: HEK293T, transiently transfected, purified (Protein-A, SEC); copies: + +) VH: QVQLQQSGPEVVKPGASVKMSCKASGYTFTSYVIHWVRQKPGQGLDWIGYINPYNDGTDYDEKFKGKATLTSDTSTSTAYMELSSLRSEDTAVYYCAREKDNYATGAWFAYWGQGTLVTVSS VL: DIVMTQSPDSLAVSLGERVTMNCKSSQSLLYSTNQKNYLAWYQQKPGQSPKLLIYWASTRESGVPDRFSGSGSGTDFTLTISSVQAEDVAVYYCQQYYSYRTFGGGTKLEIK",binding result,binds
